Measured values taken from article PMC12084609, “Structural insights into small-molecule agonist recognition and activation of complement receptor C3aR” (The EMBO Journal, 2025).
Changes are numbered by the printed parent chain. “And” between values parts separate entries of the source, which are not always exact repeats. Equal entries are not always repeated. Where two headings read alike, the source gives them in different places.

Experiments:
Type in all cases: cell-based
C3aR I102^3.32A = biological target: T1, C3aR I102^3.32A (Homo sapiens, UniProt Q16581, I102A); assay: GloSensor-based cAMP assay, C3aR mutant I102A; conditions: for ΔpIC50 ± SE of Diff.: I102^3.32A relative to WT C3aR; for cAMP response (% Forskolin): I1023.32A
T1 construct: expressed in transfected cells; host or cells: HEK293T
T1 sequence (Q16581 1-482 I102A): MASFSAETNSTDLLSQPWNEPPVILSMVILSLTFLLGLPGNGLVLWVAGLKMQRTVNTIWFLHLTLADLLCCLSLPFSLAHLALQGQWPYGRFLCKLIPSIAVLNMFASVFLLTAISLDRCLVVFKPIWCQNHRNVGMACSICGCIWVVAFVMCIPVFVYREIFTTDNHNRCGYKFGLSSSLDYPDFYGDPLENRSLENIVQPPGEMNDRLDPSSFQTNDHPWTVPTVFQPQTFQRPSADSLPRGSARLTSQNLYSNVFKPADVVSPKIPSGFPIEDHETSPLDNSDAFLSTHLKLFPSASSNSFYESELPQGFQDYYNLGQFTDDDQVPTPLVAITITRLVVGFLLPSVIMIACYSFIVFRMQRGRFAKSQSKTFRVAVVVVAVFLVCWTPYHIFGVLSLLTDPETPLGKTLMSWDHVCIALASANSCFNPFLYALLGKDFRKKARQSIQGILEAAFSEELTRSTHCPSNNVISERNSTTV
Procedure: (§1) HEK293T cells were seeded on 6-well plates (NEST) and transfected with pGlosensor™-22F plasmids (Promega) and pcDNA3.1 plasmids encoding C3aR or its mutants an with N-terminal FLAG tag. After 48 h, cells were detached with Accutase solution (Sigma-Aldrich) and washed with PBS, and resuspended in assay buffer (CO2-independent medium with 0.5 mg mL^−1D-luciferin). 100,000–200,000 cells were seeded on 96-well white bottom plates (SPL) and incubated at 37 °C for 45 min followed by 45 min incubation at room temperature. After 90 min of incubation, basal luminescence signals were recorded. In total, 25 μl of test ligand with various concentrations and 1 μM Forskolin (Sigma-Aldrich) were treated to the cells and luminescence signals were measured by Tristar 2 LB 942 multimode reader (Berthold). […] Relative luminescence unit (%) was calculated with the signal of wells treated with vehicle as 0% and the signal of wells treated with 1 μM Forskolin as 100% (DiRaddo et al, [2014]). Nonlinear regression was performed using a three-parameter logistic equation.

C3aR V103^3.33A = biological target: T2, C3aR V103^3.33A (Homo sapiens, UniProt Q16581, V103A); assay: GloSensor-based cAMP assay, C3aR mutant V103A; conditions: for Mean Diff. of pIC50, WT vs. V103A: Dunnett's multiple comparisons test, WT minus mutant; for ΔpIC50 ± SE of Diff.: V103^3.33A relative to WT C3aR; for cAMP response (% Forskolin): single replicates
T2 construct: expressed in transfected cells; host or cells: HEK293T
T2 sequence (Q16581 1-482 V103A): T1 sequence (Q16581 1-482 I102A) with A102I, V103A
Procedure: as §1

C3aR D417^7.35A = biological target: T3, C3aR D417^7.35A (Homo sapiens, UniProt Q16581, D417A); assay: GloSensor-based cAMP assay, C3aR mutant D417A; conditions: for cAMP response (% Forskolin): D4177.35A
T3 construct: expressed in transfected cells; host or cells: HEK293T
T3 sequence (Q16581 1-482 D417A): T1 sequence (Q16581 1-482 I102A) with A102I, D417A
Procedure: as §1

[1] = Dunnett's multiple comparisons test, WT minus mutant
[2] = Log[C3a (M)] -7, single replicates
[3] = Log[C3a (M)] -8, single replicates
[4] = Log[C3a (M)] -9, single replicates
[5] = Log[C3a (M)] -10, single replicates
[6] = Log[C3a (M)] -11, single replicates
[7] = Log[C3a (M)] -12, single replicates

Molecule `Cc1cc(C(c2ccc(Cl)cc2)c2ccc(Cl)cc2)sc1C(=O)N[C@@H](CCCNC(=N)N)C(=O)O` [JR14a, reference compound] has a remaining activity at 1 µM (C3aR I102^3.32A; I102A, Log[JR14a (M)] -6, single replicates, read-out: cAMP response (% Forskolin)) of 11.4%, a remaining activity at 0.1 µM (C3aR I102^3.32A; I102A, Log[JR14a (M)] -7, single replicates, read-out: cAMP response (% Forskolin)) of 12.3% and a remaining activity at 0.01 µM (C3aR I102^3.32A; I102A, Log[JR14a (M)] -8, single replicates, read-out: cAMP response (% Forskolin)) of 52.6%. It also gave a remaining activity at 0.001 µM (C3aR I102^3.32A; I102A, Log[JR14a (M)] -9, single replicates, read-out: cAMP response (% Forskolin)) of 79.2%, a remaining activity at 0.0001 µM (C3aR I102^3.32A; I102A, Log[JR14a (M)] -10, single replicates, read-out: cAMP response (% Forskolin)) of 97.7% and a remaining activity at 10 pM (C3aR I102^3.32A; I102A, Log[JR14a (M)] -11, single replicates, read-out: cAMP response (% Forskolin)) of 104%. The “ΔpIC50 ± SE of Diff.” value (C3aR I102^3.32A) was -0.13 ± 0.07, the IC50 (C3aR I102^3.32A; IC50, I102^3.32A, dose-response plot) was 7.05 nM and the IC50 (C3aR I102^3.32A; pIC50 (Replicate), I102^3.32A, individual replicates) was 7.76 nM and 9.12 nM and 4.68 nM. The IC50 (C3aR I102^3.32A; pIC50 ± SEM (Mean), I102^3.32A, mean of independent experiments) was 6.92 nM, the “Mean Diff. of pIC50, WT vs. V103A” value (C3aR V103^3.33A) was 0.201 and the IC50 (C3aR V103^3.33A; IC50, V103^3.33A, dose-response plot) was 8.93 nM. The “ΔpIC50 ± SE of Diff.” value (C3aR V103^3.33A) was -0.20 ± 0.05, the IC50 (C3aR V103^3.33A; pIC50 (Replicate), V103^3.33A, individual replicates) was 12.9 nM and 14.8 nM and 3.02 nM and the IC50 (C3aR V103^3.33A; pIC50 ± SEM (Mean), V103^3.33A, mean of independent experiments) was 8.32 nM. The remaining activity at 1 µM (C3aR D417^7.35A; D417A, Log[JR14a (M)] -6, single replicates, read-out: cAMP response (% Forskolin)) was 35.7%, the remaining activity at 0.1 µM (C3aR D417^7.35A; D417A, Log[JR14a (M)] -7, single replicates, read-out: cAMP response (% Forskolin)) was 87.8% and the remaining activity at 0.001 µM (C3aR D417^7.35A; D417A, Log[JR14a (M)] -9, single replicates, read-out: cAMP response (% Forskolin)) was 105%. For the same molecule, the remaining activity at 0.0001 µM (C3aR D417^7.35A; D417A, Log[JR14a (M)] -10, single replicates, read-out: cAMP response (% Forskolin)) was 104%, the “ΔpIC50 ± SE of Diff.” value (C3aR D417^7.35A; D417^7.35A relative to WT C3aR) was -2.18 ± 0.05 and the “Mean Diff. of pIC50, WT vs. D417A” value (C3aR D417^7.35A; [1]) was 2.176. The IC50 (C3aR D417^7.35A; IC50, D417^7.35A, dose-response plot, Not calculated = entire loss of signaling) was 425 nM, the IC50 (C3aR D417^7.35A; pIC50 (Replicate), D417^7.35A, individual replicates) was 575 nM and 339 nM and 380 nM and the IC50 (C3aR D417^7.35A; pIC50 ± SEM (Mean), D417^7.35A, mean of independent experiments, Not calculated = entire loss of signaling) was 417 nM.

In the case of “C3a: anaphylatoxin C3a, natural peptide ligand of C3aR (a 77-amino acid peptide), Sigma-Aldrich”, the “Mean Diff. of pIC50, WT vs. I102A” value (C3aR I102^3.32A; [1]) is reported as 0.080, the “ΔpIC50 ± SE of Diff.” value (C3aR I102^3.32A) is reported as -0.08 ± 0.06 and the IC50 (C3aR I102^3.32A; I102^3.32A, dose-response plot, read-out: IC50) is reported as 3.33 nM. The “pIC50 (Replicate)” value (C3aR I102^3.32A; I102^3.32A, individual replicates) was 8.61 and 8.63 and 8.49, the “pIC50 ± SEM (Mean)” value (C3aR I102^3.32A; I102^3.32A, mean of independent experiments) was 8.47 and the “cAMP response (% Forskolin)” value (C3aR I102^3.32A; [2]) was 12.51 % Forskolin and 13.87 % Forskolin and 13.89 % Forskolin and 16.73 % Forskolin. For the same molecule, the “cAMP response (% Forskolin)” value (C3aR I102^3.32A; [3]) was 18.09 % Forskolin and 20.55 % Forskolin and 21.20 % Forskolin and 43.71 % Forskolin, the “cAMP response (% Forskolin)” value (C3aR I102^3.32A; [4]) was 79.37 % Forskolin and 75.76 % Forskolin and 87.66 % Forskolin and 96.25 % Forskolin and the “cAMP response (% Forskolin)” value (C3aR I102^3.32A; [5]) was 100.22 % Forskolin and 97.06 % Forskolin and 101.20 % Forskolin and 92.74 % Forskolin. For the same molecule, the “cAMP response (% Forskolin)” value (C3aR I102^3.32A; [6]) was 101.22 % Forskolin and 97.60 % Forskolin and 96.34 % Forskolin and 96.47 % Forskolin, the “cAMP response (% Forskolin)” value (C3aR I102^3.32A; [7]) was 100.09 % Forskolin and 99.44 % Forskolin and 103.06 % Forskolin and 100.29 % Forskolin and the “Mean Diff. of pIC50, WT vs. V103A” value (C3aR V103^3.33A) was 0.086. For the same molecule, the “cAMP response (% Forskolin)” value (C3aR V103^3.33A; V103A, Log[C3a (M)] -7) was 16.81 % Forskolin and 17.64 % Forskolin and 16.37 % Forskolin, the “cAMP response (% Forskolin)” value (C3aR V103^3.33A; V103A, Log[C3a (M)] -8) was 18.63 % Forskolin and 17.74 % Forskolin and 17.49 % Forskolin and the “cAMP response (% Forskolin)” value (C3aR V103^3.33A; V103A, Log[C3a (M)] -9) was 66.34 % Forskolin and 67.98 % Forskolin and 37.55 % Forskolin. The “cAMP response (% Forskolin)” value (C3aR V103^3.33A; V103A, Log[C3a (M)] -10) was 87.50 % Forskolin and 90.87 % Forskolin and 75.99 % Forskolin, the “cAMP response (% Forskolin)” value (C3aR V103^3.33A; V103A, Log[C3a (M)] -11) was 101.77 % Forskolin and 100.57 % Forskolin and 97.94 % Forskolin and the “cAMP response (% Forskolin)” value (C3aR V103^3.33A; V103A, Log[C3a (M)] -12) was 105.75 % Forskolin and 100.95 % Forskolin and 97.98 % Forskolin. For the same molecule, the “ΔpIC50 ± SE of Diff.” value (C3aR V103^3.33A) was -0.09 ± 0.05, the IC50 (C3aR V103^3.33A; V103^3.33A, dose-response plot, read-out: IC50) was 3.53 nM and the “pIC50 (Replicate)” value (C3aR V103^3.33A; V103^3.33A, individual replicates) was 8.49 and 8.72 and 8.44 and 8.20. The “pIC50 ± SEM (Mean)” value (C3aR V103^3.33A; V103^3.33A, mean of independent experiments) was 8.46, the “cAMP response (% Forskolin)” value (C3aR V103^3.33A; V1033.33A, Log[C3a (M)] -7) was 19.41 % Forskolin and 19.52 % Forskolin and 19.42 % Forskolin and 22.72 % Forskolin and the “cAMP response (% Forskolin)” value (C3aR V103^3.33A; V1033.33A, Log[C3a (M)] -8) was 24.04 % Forskolin and 22.92 % Forskolin and 25.51 % Forskolin and 44.96 % Forskolin. The “cAMP response (% Forskolin)” value (C3aR V103^3.33A; V1033.33A, Log[C3a (M)] -9) was 89.16 % Forskolin and 71.89 % Forskolin and 87.77 % Forskolin and 103.75 % Forskolin, the “cAMP response (% Forskolin)” value (C3aR V103^3.33A; V1033.33A, Log[C3a (M)] -10) was 100.58 % Forskolin and 94.90 % Forskolin and 95.96 % Forskolin and 103.23 % Forskolin and the “cAMP response (% Forskolin)” value (C3aR V103^3.33A; V1033.33A, Log[C3a (M)] -11) was 100.23 % Forskolin and 96.38 % Forskolin and 92.81 % Forskolin and 102.90 % Forskolin. For the same molecule, the “cAMP response (% Forskolin)” value (C3aR V103^3.33A; V1033.33A, Log[C3a (M)] -12) was 97.59 % Forskolin and 96.90 % Forskolin and 93.29 % Forskolin and 103.97 % Forskolin, the “cAMP response (% Forskolin)” value (C3aR D417^7.35A; [2]) was 91.99 % Forskolin and 99.64 % Forskolin and 84.06 % Forskolin and the “cAMP response (% Forskolin)” value (C3aR D417^7.35A; [3]) was 90.00 % Forskolin and 93.47 % Forskolin and 96.64 % Forskolin. For the same molecule, the “cAMP response (% Forskolin)” value (C3aR D417^7.35A; [4]) was 98.82 % Forskolin and 114.21 % Forskolin and 106.52 % Forskolin, the “cAMP response (% Forskolin)” value (C3aR D417^7.35A; [5]) was 109.81 % Forskolin and 104.73 % Forskolin and 103.88 % Forskolin and the “cAMP response (% Forskolin)” value (C3aR D417^7.35A; [6]) was 98.54 % Forskolin and 110.53 % Forskolin and 108.95 % Forskolin. For the same molecule, the “cAMP response (% Forskolin)” value (C3aR D417^7.35A; [7]) was 97.82 % Forskolin and 107.45 % Forskolin and 101.02 % Forskolin.
